In assay [1] the target is T1, soluble human IL-6 receptor (human, UniProt P08887 20-357).
T1 construct: also called hsIL-6R; hIL6R
T1 sequence: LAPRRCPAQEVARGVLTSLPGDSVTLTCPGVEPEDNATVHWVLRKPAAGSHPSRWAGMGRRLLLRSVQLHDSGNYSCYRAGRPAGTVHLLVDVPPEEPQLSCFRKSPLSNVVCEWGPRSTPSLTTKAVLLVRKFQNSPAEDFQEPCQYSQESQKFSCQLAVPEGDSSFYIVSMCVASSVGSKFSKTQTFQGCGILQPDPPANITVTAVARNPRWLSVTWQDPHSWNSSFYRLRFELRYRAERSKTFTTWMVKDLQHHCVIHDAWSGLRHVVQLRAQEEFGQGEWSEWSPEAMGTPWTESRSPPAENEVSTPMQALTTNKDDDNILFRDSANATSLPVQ
Description: SPR (Biacore T100), antibody captured on protein A, human IL-6 receptor as analyte, 37 C, pH 7.4. The protocol:
(§1) Kinetic analysis on the antigen-antibody reaction between each of GL1-IgG1-SA (−), GL1-M111-SA (−), GL2-M111-SA (−), GL3-M111-SA (−), GL4-M111-SA (−), GL5-M111-SA (−), GL6-M111-SA (−), GL7-M111-SA (−), GL8-M111-SA (−), GL9-M111-SA (−), GL10-M111-SA (−) and a human IL-6 receptor was performed by use of Biacore T100 (GE Healthcare). An appropriate amount of protein A (Invitrogen) was immobilized onto Sensor chip CM5 (GE Healthcare) by the amine coupling method and then a target antibody was allowed to capture. Subsequently, a human IL-6 receptor dilution solution and a running buffer (a blank) were injected at a flow rate of 20 μL/min for 3 minutes to allow the human IL-6 receptor to interact with the antibody captured on the sensor chip. Either one of two types of running buffers pH 7.4 and pH 6.0 containing 10 mmol/L ACES, 150 mmol/L NaCl, and 0.05% (w/v) Tween20 was used and each buffer was employed for dilution of IL-6R. Thereafter, the running buffer was fed at a flow rate of 20 μL/min for 5 minutes. After observation of dissociation of the IL-6 receptor, 10 mmol/L Glycine-HCl (pH 1.5) was injected at a flow rate of 30 μL/min for 30 seconds to regenerate the sensor chip. All samples were measured at 37° C. From the sensorgram obtained by measurement, an association constant, ka (1/Ms) and a dissociation constant, kd (1/s) as kinetics parameters were computationally obtained. Based on the obtained values, KD (M) of each antibody to a human IL-6 receptor was calculated. Individual parameters were calculated by use of Biacore T100 Evaluation Software (GE Healthcare).
In general terms: In SPR one partner is held on a chip, and binding of the other changes the refractive index at the surface.

Assay [2] has as its target T1, soluble human IL-6 receptor. Description: SPR (Biacore T100), antibody captured on anti-human IgG F(ab')2, human IL-6 receptor as analyte, 37 C, pH 7.4. The method, then: (§2) Then, kinetic analysis of an antigen-antibody reaction between each of GL1-M111-SA (−) and GL5-M111-SA (−) and a human IL-6 receptor was performed by using Biacore T100 (GE Healthcare). In both cases, measurement was performed by using an antibody treated with sialidase as a sample. An appropriate amount of Anti-Human IgG (γ-chain specific) F(ab′)2 fragment antibody produced in goat (Sigma) was immobilized onto Sensor chip CM5 (GE Healthcare) in accordance with the amine coupling method and then a target antibody was allowed to capture. Subsequently, a human IL-6 receptor dilution solution and a running buffer (a blank) were injected at a flow rate of 20 μL/min for 3 minutes to allow the human IL-6 receptor to interact with the antibody captured on the sensor chip. Either one of two types of running buffers pH 7.4 and pH 6.0 containing 10 mmol/L ACES, 150 mmol/L NaCl, and 0.05% (w/v) Tween20 was used, and each buffer was employed for dilution of IL-6R. Thereafter, a running buffer was fed at a flow rate 20 μL/min for 5 minutes. After dissociation of the IL-6 receptor was observed, 10 mmol/L Glycine-HCl (pH 1.5) was injected at a flow rate 30 μL/min for 5 seconds. […] All samples were measured at 37° C. […] From the values, KD (M) of each antibody to a human IL-6 receptor was calculated. Individual parameters were calculated by use of Biacore T100 Evaluation Software (GE Healthcare).

Assay [3] has the same target. Description: SPR (Biacore T100), antibody captured on anti-human IgG F(ab')2, human IL-6 receptor as analyte, 37 C, pH 6.0. The protocol: as §2
For assay [4] the target is unchanged. Description: SPR (Biacore T100), antibody captured on protein A, human IL-6 receptor as analyte, 37 C, pH 6.0. The protocol:
as §1

Assay [5] has the same target. As to the kind of experiment: SPR (Biacore T100), antibody captured on anti-human IgG F(ab')2, human IL-6 receptor as analyte, 37 C, pH 6.0. The protocol:
(§3) GL1-IgG1-SA (−) and GL5-IgG1-SA (−) were treated with sialidase and then used as measurement samples. An appropriate amount of Anti-Human IgG (γ-chain specific), F(ab′)2 fragment antibody produced in goat (Sigma) was immobilized onto Sensor chip CM5 (GE Healthcare) in accordance with the amine coupling method and then a target antibody was allowed to capture. Subsequently, a human IL-6 receptor dilution solution and a running buffer (a blank) were injected at a flow rate of 20 μL/min for 3 minutes to allow the human IL-6 receptor to interact with the antibody captured on the sensor chip. Either one of two types of running buffers pH 7.4 and pH 6.0 containing 10 mmol/L ACES, 150 mmol/L NaCl, and 0.05% (w/v) Tween20 was used and each buffer was employed for dilution of IL-6R. Thereafter, a running buffer was fed at a flow rate 20 μL/min for 5 minutes. After dissociation of the IL-6 receptor was observed, 10 mmol/L Glycine-HCl (pH 1.5) was injected at a flow rate of 30 μL/min for 5 seconds. This procedure was repeated five times to regenerate the sensor chip. All samples were measured at 37° C. From the sensorgram obtained by measurement, an association constant, ka (1/Ms) and a dissociation constant kd (1/s) as kinetics parameters were computationally obtained. From the values, KD (M) of each antibody to a human IL-6 receptor was calculated. Individual parameters were calculated by use of Biacore T100 Evaluation Software (GE Healthcare).
This is another data set of the same source.

Assay [6] shares this target. Description: SPR (Biacore T100), antibody captured on anti-human IgG F(ab')2, human IL-6 receptor as analyte, 37 C, pH 7.4. The protocol: as §3
This is another data set of the same source.

Where a chain is given by its changes, count along the chain named.

B1: GL1-M111-SA (-) (antibody, human IgG1, kappa, N297A)
heavy: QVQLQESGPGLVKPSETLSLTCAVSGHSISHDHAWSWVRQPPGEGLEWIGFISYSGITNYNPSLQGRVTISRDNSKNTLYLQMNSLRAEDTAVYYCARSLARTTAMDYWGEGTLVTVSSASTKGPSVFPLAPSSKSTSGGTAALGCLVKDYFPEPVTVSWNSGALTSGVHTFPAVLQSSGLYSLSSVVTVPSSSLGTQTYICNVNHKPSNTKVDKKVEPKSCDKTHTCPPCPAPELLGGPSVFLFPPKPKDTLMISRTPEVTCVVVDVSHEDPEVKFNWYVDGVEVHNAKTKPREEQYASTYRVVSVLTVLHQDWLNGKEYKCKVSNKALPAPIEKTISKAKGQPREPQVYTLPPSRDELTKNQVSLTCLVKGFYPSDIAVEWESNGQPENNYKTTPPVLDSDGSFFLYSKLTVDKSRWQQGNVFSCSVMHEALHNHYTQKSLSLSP
light: DIQMTQSPSSLSASVGDSVTITCQASTDISSHLNWYQQKPGKAPELLIYYGSHLLSGVPSRFSGSGSGTDFTFTISSLEAEDAATYYCGQGNRLPYTFGQGTKVEIERTVAAPSVFIFPPSDEQLKSGTASVVCLLNNFYPREAKVQWKVDNALQSGNSQESVTEQDSKDSTYSLSSTLTLSKADYEKHKVYACEVTHQGLSSPVTKSFNRGEC
notes: No sugar chain on heavy or light chain; treated with neuraminidase
In the case of B1, the Kd (in general, the concentration at which binding is half-saturated) in assay [1] stood at 1.8 nM; in assay [2], 2 nM; in assay [3] it was 66 nM; in assay [4] it was 150 nM.

B2: GL5-IgG1-SA (-) (antibody)
heavy: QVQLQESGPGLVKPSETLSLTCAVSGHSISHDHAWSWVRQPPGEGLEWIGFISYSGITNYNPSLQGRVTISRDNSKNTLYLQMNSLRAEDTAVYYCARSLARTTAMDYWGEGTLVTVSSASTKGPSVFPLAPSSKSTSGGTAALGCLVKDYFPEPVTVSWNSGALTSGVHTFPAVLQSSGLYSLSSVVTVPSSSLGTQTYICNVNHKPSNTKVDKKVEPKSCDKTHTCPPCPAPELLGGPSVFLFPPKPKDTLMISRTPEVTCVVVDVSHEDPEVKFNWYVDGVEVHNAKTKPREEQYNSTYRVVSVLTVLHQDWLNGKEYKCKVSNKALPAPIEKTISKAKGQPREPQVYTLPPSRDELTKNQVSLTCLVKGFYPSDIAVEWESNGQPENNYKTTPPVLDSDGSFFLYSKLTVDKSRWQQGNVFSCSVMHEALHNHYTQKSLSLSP
light: B1 light with S18N, Q24N
modifications: N-linked sugar chains at two sites of the light chain (Asn 20 and Asn 24, Kabat), sialic acid removed; N-linked sugar chain at Asn 297 (EU numbering), terminal sialic acid removed
notes: Treated with sialidase
Take B2: the Kd came to 52 nM in assay [5] and 1.9 nM in assay [6].

B3: GL6-M111-SA (-) (antibody, human IgG1, kappa, N297A)
heavy: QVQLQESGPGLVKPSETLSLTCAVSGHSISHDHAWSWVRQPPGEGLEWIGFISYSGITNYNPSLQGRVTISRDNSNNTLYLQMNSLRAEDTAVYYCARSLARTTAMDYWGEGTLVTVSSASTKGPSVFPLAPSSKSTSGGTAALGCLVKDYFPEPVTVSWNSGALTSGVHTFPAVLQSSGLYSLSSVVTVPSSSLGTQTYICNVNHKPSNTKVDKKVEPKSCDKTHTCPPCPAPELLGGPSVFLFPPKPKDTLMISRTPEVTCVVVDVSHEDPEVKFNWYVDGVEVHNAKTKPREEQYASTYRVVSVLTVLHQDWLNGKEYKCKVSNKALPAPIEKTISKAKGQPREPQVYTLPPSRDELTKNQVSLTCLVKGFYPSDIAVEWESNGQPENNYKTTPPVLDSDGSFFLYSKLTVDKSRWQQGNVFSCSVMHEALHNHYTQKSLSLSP
light: B1 light
modifications: N-linked complex sugar chain at the site introduced by Lys 75 to Asn (Kabat), sialic acid removed, terminal galactose exposed
notes: Treated with neuraminidase
As for B3, the results for the Kd in assay [1] and in assay [4] were 2.6 nM and 110 nM, respectively.

B4: GL3-M111-SA (-) (antibody, human IgG1, kappa, N297A)
heavy: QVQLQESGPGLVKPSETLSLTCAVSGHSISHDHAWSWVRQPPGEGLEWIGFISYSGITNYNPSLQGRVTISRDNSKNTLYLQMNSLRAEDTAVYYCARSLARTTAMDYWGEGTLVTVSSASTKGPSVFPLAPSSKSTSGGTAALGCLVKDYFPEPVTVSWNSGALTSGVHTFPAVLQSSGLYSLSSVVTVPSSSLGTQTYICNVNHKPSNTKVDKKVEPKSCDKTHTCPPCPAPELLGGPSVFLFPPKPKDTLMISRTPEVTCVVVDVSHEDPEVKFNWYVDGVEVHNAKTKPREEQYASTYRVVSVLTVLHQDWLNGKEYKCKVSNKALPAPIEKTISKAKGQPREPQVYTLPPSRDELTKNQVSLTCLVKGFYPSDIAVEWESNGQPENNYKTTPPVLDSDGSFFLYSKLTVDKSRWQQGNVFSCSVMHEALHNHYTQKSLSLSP
light: B1 light with T20N
modifications: N-linked complex sugar chain at the site introduced by Thr 20 to Asn (Kabat), sialic acid removed, terminal galactose exposed
notes: Treated with neuraminidase
Turning to B4, the figures for the dissociation constant Kd in assay [1] and in assay [4] were 1.3 nM and 80 nM, respectively.

B5: GL2-M111-SA (-) (antibody, human IgG1, kappa, N297A)
heavy: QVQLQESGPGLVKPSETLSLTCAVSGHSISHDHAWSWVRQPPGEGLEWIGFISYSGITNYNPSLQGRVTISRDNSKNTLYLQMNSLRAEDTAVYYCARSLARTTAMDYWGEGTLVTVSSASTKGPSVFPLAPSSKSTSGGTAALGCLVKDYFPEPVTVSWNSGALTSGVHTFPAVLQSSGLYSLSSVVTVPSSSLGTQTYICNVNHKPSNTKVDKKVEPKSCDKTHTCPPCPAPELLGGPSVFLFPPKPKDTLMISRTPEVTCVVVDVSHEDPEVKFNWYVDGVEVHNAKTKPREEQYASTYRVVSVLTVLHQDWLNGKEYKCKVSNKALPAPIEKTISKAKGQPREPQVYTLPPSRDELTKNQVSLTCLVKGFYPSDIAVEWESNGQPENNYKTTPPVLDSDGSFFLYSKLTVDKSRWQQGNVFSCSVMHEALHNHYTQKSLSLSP
light: B1 light with S18N
modifications: N-linked complex sugar chain at the site introduced by Ser 18 to Asn (Kabat), sialic acid removed, terminal galactose exposed
notes: Treated with neuraminidase
For the molecule B5, the results for the equilibrium dissociation constant (Kd) in assay [1] and in assay [4] were 1.6 nM and 110 nM, respectively.

B6: GL10-M111-SA (-) (antibody, human IgG1, kappa, N297A)
heavy: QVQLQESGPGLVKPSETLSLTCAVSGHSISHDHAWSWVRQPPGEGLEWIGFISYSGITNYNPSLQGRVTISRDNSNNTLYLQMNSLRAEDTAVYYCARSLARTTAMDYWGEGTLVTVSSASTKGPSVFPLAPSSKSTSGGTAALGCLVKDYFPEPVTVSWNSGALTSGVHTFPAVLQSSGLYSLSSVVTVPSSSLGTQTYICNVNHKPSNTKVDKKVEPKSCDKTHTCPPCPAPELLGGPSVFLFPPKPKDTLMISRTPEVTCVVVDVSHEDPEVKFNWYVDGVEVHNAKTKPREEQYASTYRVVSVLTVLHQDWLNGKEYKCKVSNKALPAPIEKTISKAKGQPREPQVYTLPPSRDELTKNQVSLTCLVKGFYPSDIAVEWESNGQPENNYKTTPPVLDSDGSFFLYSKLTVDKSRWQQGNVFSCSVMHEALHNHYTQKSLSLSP
light: B1 light with S18N, Q24N
modifications: two N-linked complex sugar chains at the sites introduced by Thr 20 to Asn and Gln 24 to Asn (Kabat), sialic acid removed; N-linked complex sugar chain at the site introduced by Lys 75 to Asn (Kabat), sialic acid removed
notes: Treated with neuraminidase
B6: the Kd in assay [1] is 2.4 nM; in assay [4], 130 nM.

B7: GL1-IgG1-SA (-) (antibody)
heavy: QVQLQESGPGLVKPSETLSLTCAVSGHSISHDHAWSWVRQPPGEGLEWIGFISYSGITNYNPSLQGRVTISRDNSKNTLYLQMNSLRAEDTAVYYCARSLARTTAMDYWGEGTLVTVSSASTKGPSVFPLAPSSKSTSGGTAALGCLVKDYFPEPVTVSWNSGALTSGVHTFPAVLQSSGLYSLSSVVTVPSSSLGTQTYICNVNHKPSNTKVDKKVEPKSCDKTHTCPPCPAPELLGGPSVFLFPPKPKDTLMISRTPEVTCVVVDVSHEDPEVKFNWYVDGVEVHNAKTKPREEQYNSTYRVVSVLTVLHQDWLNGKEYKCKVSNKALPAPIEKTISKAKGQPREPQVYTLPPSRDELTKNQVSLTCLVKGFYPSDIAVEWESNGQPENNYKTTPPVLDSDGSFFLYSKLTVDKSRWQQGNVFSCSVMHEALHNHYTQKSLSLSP
light: B1 light
modifications: N-linked sugar chain at Asn 297 (EU numbering), terminal sialic acid removed
notes: also called GL1-IgG1 treated with neuraminidase/sialidase; Fv4-IgG1
For B7, the equilibrium dissociation constant (Kd) in assay [1] is 1.8 nM; in assay [4], 150 nM; in assay [5] it was 61 nM; in assay [6] it was 2.2 nM.

B8: GL7-M111-SA (-) (antibody, human IgG1, kappa, N297A)
heavy: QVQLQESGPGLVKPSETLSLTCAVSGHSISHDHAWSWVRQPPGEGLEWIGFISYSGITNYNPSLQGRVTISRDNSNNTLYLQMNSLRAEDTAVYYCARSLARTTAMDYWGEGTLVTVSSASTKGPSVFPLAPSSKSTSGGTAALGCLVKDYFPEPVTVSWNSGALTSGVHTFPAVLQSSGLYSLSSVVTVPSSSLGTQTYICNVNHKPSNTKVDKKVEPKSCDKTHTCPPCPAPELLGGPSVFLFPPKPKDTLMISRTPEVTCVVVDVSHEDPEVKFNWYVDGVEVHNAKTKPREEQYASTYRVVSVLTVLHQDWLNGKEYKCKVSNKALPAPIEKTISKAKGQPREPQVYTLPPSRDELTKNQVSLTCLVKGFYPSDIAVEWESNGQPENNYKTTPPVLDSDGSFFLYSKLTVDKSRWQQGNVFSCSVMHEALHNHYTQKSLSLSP
light: B1 light with S18N
modifications: N-linked complex sugar chain at the site introduced by Ser 18 to Asn (Kabat), sialic acid removed; N-linked complex sugar chain at the site introduced by Lys 75 to Asn (Kabat), sialic acid removed
notes: Treated with neuraminidase
With B8, the dissociation constant Kd in assay [1] was 2.4 nM; in assay [4] it was 150 nM.

B9: GL4-M111-SA (-) (antibody, human IgG1, kappa, N297A)
heavy: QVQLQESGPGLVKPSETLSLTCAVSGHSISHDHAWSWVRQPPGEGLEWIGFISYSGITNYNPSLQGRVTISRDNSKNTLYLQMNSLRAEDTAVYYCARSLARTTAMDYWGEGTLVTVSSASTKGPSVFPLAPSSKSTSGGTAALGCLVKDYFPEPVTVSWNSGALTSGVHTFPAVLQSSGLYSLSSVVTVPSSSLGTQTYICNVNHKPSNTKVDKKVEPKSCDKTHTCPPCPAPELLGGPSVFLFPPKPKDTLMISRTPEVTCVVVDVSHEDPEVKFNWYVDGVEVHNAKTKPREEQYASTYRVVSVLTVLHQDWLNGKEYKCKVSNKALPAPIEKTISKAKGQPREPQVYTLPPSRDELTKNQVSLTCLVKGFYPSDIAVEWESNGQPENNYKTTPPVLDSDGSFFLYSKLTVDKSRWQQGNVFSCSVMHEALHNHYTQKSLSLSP
light: B1 light with Q24N
modifications: N-linked complex sugar chain at the site introduced by Gln 24 to Asn (Kabat), sialic acid removed, terminal galactose exposed
notes: Treated with neuraminidase
For the molecule B9, the Kd in assay [1] was 1.7 nM; in assay [4], 140 nM.

B10: GL5-M111-SA (-) (antibody, human IgG1, kappa, N297A)
heavy: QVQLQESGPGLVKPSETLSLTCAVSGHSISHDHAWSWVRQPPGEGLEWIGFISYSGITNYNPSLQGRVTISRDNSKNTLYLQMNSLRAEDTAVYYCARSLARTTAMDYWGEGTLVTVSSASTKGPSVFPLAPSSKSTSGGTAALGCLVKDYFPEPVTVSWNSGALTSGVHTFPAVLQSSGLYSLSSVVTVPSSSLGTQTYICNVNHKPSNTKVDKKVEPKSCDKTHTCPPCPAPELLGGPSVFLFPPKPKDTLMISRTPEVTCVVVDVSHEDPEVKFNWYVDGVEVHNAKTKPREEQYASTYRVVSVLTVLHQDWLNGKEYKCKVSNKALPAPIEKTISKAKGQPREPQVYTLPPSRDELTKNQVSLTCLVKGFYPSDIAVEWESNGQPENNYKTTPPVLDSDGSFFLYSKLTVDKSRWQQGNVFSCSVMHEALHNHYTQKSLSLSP
light: B1 light with S18N, Q24N
modifications: two N-linked complex sugar chains (G2/G3/G4 combinations) at the sites introduced by Thr 20 to Asn and Gln 24 to Asn (Kabat), sialic acid removed, terminal galactose exposed
notes: Treated with neuraminidase
With B10, the dissociation constant Kd was 1.5 nM in assay [1], 1.9 nM in assay [2], 57 nM in assay [3] and 99 nM in assay [4].

B11: GL1-IgG1-SA (+) (antibody)
heavy: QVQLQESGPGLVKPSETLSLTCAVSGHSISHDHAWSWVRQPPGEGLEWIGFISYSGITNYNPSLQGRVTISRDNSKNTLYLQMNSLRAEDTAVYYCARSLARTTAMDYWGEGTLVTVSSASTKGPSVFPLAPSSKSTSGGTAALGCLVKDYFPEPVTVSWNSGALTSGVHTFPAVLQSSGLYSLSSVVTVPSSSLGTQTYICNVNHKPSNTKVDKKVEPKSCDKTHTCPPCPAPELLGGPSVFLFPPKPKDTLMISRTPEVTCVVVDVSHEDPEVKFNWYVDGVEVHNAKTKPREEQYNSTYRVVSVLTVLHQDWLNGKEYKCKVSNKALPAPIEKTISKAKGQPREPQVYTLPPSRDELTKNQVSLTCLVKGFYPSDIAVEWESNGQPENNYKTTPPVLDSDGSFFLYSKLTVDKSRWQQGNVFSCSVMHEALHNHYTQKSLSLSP
light: B1 light
modifications: N-linked sugar chain at Asn 297 (EU numbering), sialic acid not removed
notes: Same chains as GL1-IgG1-SA (-), not treated with sialidase; also called Fv4-IgG1
Consider B11, for which the figures for the Kd in assay [5] and in assay [6] were 66 nM and 2.1 nM, respectively.

B12: GL9-M111-SA (-) (antibody, human IgG1, kappa, N297A)
heavy: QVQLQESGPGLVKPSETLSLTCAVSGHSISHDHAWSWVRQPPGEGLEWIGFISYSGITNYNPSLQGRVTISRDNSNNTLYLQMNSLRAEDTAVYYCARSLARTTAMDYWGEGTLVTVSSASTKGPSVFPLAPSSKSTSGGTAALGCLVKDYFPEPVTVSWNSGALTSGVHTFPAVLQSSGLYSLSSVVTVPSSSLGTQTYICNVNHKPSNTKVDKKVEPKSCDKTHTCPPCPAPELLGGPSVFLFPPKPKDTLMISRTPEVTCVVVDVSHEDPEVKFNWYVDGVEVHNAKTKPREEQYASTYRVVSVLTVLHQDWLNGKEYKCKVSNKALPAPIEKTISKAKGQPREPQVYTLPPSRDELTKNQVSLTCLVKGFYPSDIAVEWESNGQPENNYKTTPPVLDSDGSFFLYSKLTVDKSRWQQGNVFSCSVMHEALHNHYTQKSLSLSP
light: B1 light with Q24N
modifications: N-linked complex sugar chain at the site introduced by Gln 24 to Asn (Kabat), sialic acid removed; N-linked complex sugar chain at the site introduced by Lys 75 to Asn (Kabat), sialic acid removed
notes: Treated with neuraminidase
As for B12, the equilibrium dissociation constant (Kd) came out at 2.3 nM in assay [1] and 110 nM in assay [4].

B13: GL8-M111-SA (-) (antibody, human IgG1, kappa, N297A)
heavy: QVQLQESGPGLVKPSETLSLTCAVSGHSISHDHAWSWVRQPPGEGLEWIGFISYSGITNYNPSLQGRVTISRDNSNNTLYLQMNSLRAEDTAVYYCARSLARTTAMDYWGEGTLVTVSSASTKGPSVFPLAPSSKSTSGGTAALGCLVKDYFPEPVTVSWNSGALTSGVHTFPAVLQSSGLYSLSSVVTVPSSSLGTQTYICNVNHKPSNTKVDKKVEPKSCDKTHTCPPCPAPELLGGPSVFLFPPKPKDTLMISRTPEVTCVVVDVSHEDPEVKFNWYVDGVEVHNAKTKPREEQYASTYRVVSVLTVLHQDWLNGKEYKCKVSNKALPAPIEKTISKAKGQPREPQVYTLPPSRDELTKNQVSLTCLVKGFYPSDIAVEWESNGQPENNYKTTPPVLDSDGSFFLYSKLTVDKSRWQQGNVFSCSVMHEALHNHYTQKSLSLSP
light: B1 light with T20N
modifications: N-linked complex sugar chain at the site introduced by Thr 20 to Asn (Kabat), sialic acid removed; N-linked complex sugar chain at the site introduced by Lys 75 to Asn (Kabat), sialic acid removed
notes: Treated with neuraminidase
For B13, the Kd in assay [1] was found to be 2 nM; in assay [4], 110 nM.

B14: H54/L28-IgG1 (antibody, V domains shown)
VH: QVQLQESGPGLVKPSETLSLTCAVSGYSISDDQAWSWVRQPPGEGLEWIGYISYSGITNYNPSLKGRVTISRDTSKNQFSLKLSSVTAADTAAYYCARSLARTTAMDYWGEGTLVTVSS
VL: DIQMTQSPSSLSASVGDSVTITCQASQDISSYLNWYQQKPGKAPELLIYYGSELHSGVPSRFSGSGSGTDFTFTISSLEAEDAATYYCQQGNSLPYTFGQGTKVEIER
notes: Humanized anti-IL-6 receptor antibody without pH or Ca dependency; not treated with sialidase; also called H54/L28-IgG1-SA (+); H54L28-IgG1-SA (+)
In the case of B14, the equilibrium dissociation constant (Kd) was determined as 3.4 nM in assay [5] and 3.9 nM in assay [6].

For the origin of these results see patent US20150299313A1 (Chugai, published 2015).
